Data published in patent US20140357845A1.

Columns and labels:
Assay in all cases: FACS
[1] = biological target: miniHA (A/Brisbane/59/2007) (influenza A virus H1N1) (UniProt A8C8J4)
[2] = biological target: miniHA cluster1 (A/Brisbane/59/2007) (influenza A virus H1N1) (UniProt A8C8J4)
[3] = biological target: H3-mini2-cl9 + 10 + 11 + 12-GCN4 (influenza A virus H3N2) (UniProt O11283)
[4] = biological target: HK68 H3m2-cl9 + 10 + 11 + 12 (influenza A virus H3N2) (UniProt Q91MA7)
[5] = biological target: HK68 H3m2-cl9 + 10 + 11 + 12-GCN4 (influenza A virus H3N2) (UniProt Q91MA7)
[6] = biological target: HK68 H3m2-cl9 + 10 + 11 + 12-tri (influenza A virus H3N2) (UniProt Q91MA7)
[7] = biological target: HK68 H3m2-cl9 + 10 + 12 (influenza A virus H3N2) (UniProt Q91MA7)
[8] = biological target: mini2 cluster11 + 5 (A/Brisbane/59/2007) (influenza A virus H1N1) (UniProt A8C8J4)

Substance | % positive cells [1] [%] | % positive cells [2] [%] | % positive cells [3] [%] | % positive cells [4] [%] | % positive cells [5] [%] | % positive cells [6] [%] | % positive cells [7] [%] | MFI relative to full-length HA [8] [%] | MFI relative to full-length HA [2] [%]
CR6328 (antibody) | 1 to 3 | 60 |  |  |  |  |  |  | 
CR8020 (antibody) |  |  | 60 | > 15 | > 15 | > 15 | > 15 |  | 
CR6254 (antibody) | 1 to 3 | 60 |  |  |  |  |  | 50 | 10
CR8043 (antibody) |  |  |  | > 15 | > 15 | > 15 | > 15 |  | 
